Measured values: patent US20140128280A1 (published 2014)

Tests used:
Gal80 [1] = target: T1, Gal80 (UniProt P04387 1-435, limits assumed); experiment: SPR, synbody in solution (1 µM to 7.81 nM) over surface-bound Gal80
T1 construct: Cy3/Cy5-labeled on arrays; immobilized on SPR chip or ELISA well, or in solution over immobilized synbody
T1 sequence (looked up): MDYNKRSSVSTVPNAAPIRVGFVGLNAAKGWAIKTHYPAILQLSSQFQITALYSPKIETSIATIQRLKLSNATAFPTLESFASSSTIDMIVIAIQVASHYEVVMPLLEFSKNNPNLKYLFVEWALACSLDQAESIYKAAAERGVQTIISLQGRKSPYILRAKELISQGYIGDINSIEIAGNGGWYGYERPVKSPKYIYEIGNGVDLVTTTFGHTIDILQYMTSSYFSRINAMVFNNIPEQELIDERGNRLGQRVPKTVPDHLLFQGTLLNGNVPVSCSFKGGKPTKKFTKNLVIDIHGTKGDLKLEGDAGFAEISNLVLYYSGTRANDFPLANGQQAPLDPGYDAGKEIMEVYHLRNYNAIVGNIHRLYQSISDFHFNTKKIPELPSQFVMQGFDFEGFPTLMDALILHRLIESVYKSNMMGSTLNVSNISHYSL

α1-antitrypsin = target: T2, α1-antitrypsin; experiment: SPR
T2 construct: also called α-antitrypsin; α-antitrypsine

Gal80 [2] = target: T1, Gal80; experiment: gel shift assay
transferrin = target: T3, transferrin (human, UniProt P02787 20-698); experiment: SPR (Biacore A-100), purified peptide at several concentrations
T3 construct: Amine-coupled to SPR chips, tips or beads; Alexa 555-labeled on arrays; also called TRF; pooled human transferrin (Sigma)
T3 sequence (P02787 20-698 limits assumed): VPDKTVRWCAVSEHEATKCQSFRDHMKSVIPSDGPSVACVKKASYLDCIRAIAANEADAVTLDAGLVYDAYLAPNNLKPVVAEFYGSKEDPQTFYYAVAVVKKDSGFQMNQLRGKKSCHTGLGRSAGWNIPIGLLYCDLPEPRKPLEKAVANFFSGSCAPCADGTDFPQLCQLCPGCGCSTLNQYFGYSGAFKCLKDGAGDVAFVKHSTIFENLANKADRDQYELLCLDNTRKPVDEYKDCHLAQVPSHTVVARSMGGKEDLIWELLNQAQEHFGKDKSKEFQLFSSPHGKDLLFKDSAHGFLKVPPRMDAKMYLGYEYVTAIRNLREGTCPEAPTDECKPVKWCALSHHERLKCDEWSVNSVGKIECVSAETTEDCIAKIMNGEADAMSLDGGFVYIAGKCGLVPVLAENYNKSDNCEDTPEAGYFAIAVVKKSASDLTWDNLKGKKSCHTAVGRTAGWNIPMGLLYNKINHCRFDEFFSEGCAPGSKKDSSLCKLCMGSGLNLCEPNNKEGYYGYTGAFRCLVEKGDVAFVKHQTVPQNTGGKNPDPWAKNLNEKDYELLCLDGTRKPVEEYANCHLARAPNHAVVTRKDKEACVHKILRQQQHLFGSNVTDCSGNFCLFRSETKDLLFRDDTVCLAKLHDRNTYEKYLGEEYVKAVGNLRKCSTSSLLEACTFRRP
Text: A Biacore A-100 Surface Plasmon Resonance (SPR) system was used to measure the binding response of each peptide to several different target proteins immobilized on a gold surface. The A-100 has four different flow cells and within each flow cell are five addressable spots. Therefore four different proteins and a negative control reference can be used per flow cell. […] Sensorgrams are collected from each immobilized protein, so a binding profile for each analyte versus each of the protein targets is generated for each injection. Target proteins were immobilized using a biotin capture approach in which a CM5 chip was activated using standard amine coupling chemistry and Neutravidin was covalently coupled to the chip. Each biotinylated protein was injected over a single spot and the amount of protein captured was measured. In this manner four proteins were immobilized per flow cell. In this example, the same four proteins were captured in all four flow cells for this experiment.

T2 sequence (P01009 25-418): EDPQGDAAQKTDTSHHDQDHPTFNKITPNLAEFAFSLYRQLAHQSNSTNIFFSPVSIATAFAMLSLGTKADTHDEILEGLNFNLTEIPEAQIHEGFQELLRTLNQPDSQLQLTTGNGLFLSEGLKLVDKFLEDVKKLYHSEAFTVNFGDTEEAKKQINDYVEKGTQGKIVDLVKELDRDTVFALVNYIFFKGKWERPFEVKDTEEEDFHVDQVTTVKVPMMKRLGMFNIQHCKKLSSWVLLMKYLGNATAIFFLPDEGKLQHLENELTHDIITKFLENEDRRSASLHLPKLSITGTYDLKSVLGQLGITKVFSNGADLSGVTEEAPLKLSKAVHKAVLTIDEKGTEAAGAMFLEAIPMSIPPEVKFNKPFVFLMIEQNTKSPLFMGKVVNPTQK

B1: BP1/BP2 DNA-linked synbody (linker-optimized: BP1 on the template strand, BP2 at position 13 from the 3' end of the variable strand) (designed binder)
peptide 1: GTEKGTSGWLKTGSC
peptide 2: EGEWTEGKLSLRGSC
modifications: C-terminal Cys joined through SMCC to the amine-modified cytosine at position 13 from the 3' terminus of the DNA variable strand (SEQ ID NO: 15); C-terminal Cys joined through SMCC to the 5' terminal amine-modified cytosine of the DNA template strand (SEQ ID NO: 14)
notes: Two peptides held by a double-stranded DNA linker; also called Gal80 synbody; gal80 synbody
Question: How did the Kd (Gal80 [1]) turn out when B1 was run?
Answer: Its Kd is 91 nM.

Question: And the “Kd relative to the Kd for gal80” value (α1-antitrypsin)?
Answer: The value was 1000 fold.

Question: And the Kd (Gal80 [2])?
Answer: The Kd was ~100 nM.

B2: TRF102 (peptide)
peptide: NQYVPIFSQPEDPVQQEGSC
notes: Screened unpurified
Question: Does B2 bind (transferrin)?
Answer: Result: no binding
